Data reported in IntAct's records for PubMed 35512704.

B1: Mothers against decapentaplegic homolog 4 (Homo sapiens), Q13485 (parent)
chain: MDNMSITNTPTSNDACLSIVHSLMCHRQGGESETFAKRAIESLVKKLKEKKDELDSLITAITTNGAHPSKCVTIQRTLDGRLQVAGRKGFPHVIYARLWRWPDLHKNELKHVKYCQYAFDLKCDSVCVNPYHYERVVSPGIDLSGLTLQSNAPSSMMVKDEYVHDFEGQPSLSTEGHSIQTIQHPPSNRASTETYSTPALLAPSESNATSTANFPNIPVASTSQPASILGGSHSEGLLQIASGPQPGQQQNGFTGQPATYHHNSTTTWTGSRTAPYTPNLPHHQNGHLQHHPPMPPHPGHYWPVHNELAFQPPISNHPAPEYWCSIAYFEMDVQVGETFKVPSSCPIVTVDGYVDPSGGDRFCLGQLSNVHRTEAIERARLHIGKGVQLECKGEGDVWVRCLSDHAVFVQSYYLDREAGRAPGDAVHKIYPSAYIKVFDLRQCHRQMQQQAATAQAAAAAQAAAVAGNIPGPGSVGGIAPAISLSAAAGIGVDDLRRLCILRMSFVKGWGPDYPRQSIKETPCWIEIHLHRALQLLDEVLHTMPIADPQPLD
partner: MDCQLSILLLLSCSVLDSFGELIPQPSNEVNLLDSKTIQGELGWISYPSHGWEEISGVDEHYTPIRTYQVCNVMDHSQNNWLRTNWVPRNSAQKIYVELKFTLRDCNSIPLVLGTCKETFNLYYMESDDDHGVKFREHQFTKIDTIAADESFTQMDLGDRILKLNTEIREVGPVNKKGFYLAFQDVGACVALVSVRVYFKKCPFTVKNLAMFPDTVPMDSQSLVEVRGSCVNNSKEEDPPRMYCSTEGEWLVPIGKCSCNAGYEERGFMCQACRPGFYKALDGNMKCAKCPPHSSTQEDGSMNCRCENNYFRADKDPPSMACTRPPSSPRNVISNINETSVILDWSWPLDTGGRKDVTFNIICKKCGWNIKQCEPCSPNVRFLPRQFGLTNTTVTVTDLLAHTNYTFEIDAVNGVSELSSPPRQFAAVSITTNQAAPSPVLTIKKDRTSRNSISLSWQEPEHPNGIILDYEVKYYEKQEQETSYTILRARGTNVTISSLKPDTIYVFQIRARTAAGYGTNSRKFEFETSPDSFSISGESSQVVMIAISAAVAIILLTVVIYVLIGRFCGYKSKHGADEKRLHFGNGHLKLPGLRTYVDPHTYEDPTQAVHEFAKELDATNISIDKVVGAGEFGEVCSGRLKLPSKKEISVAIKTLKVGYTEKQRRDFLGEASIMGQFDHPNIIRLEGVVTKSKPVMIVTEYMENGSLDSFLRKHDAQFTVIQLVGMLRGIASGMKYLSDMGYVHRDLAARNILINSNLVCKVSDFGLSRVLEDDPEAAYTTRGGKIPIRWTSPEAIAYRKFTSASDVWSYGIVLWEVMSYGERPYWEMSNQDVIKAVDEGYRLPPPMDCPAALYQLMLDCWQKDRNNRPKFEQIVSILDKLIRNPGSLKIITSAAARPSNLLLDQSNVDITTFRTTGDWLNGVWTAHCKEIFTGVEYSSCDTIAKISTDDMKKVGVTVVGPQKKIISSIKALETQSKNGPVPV
B2: Mothers against decapentaplegic homolog 4 (Homo sapiens), Q13485 (parent)
chain: B1 chain
partner: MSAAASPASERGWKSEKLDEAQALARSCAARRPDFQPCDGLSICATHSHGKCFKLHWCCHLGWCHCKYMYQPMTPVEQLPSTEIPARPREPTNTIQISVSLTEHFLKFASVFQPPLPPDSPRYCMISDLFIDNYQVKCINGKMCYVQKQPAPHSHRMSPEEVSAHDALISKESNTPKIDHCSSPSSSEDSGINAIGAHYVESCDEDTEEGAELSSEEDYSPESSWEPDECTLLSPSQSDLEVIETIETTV
B3: Mothers against decapentaplegic homolog 4 (Homo sapiens), Q13485 (parent)
chain: B1 chain
partner: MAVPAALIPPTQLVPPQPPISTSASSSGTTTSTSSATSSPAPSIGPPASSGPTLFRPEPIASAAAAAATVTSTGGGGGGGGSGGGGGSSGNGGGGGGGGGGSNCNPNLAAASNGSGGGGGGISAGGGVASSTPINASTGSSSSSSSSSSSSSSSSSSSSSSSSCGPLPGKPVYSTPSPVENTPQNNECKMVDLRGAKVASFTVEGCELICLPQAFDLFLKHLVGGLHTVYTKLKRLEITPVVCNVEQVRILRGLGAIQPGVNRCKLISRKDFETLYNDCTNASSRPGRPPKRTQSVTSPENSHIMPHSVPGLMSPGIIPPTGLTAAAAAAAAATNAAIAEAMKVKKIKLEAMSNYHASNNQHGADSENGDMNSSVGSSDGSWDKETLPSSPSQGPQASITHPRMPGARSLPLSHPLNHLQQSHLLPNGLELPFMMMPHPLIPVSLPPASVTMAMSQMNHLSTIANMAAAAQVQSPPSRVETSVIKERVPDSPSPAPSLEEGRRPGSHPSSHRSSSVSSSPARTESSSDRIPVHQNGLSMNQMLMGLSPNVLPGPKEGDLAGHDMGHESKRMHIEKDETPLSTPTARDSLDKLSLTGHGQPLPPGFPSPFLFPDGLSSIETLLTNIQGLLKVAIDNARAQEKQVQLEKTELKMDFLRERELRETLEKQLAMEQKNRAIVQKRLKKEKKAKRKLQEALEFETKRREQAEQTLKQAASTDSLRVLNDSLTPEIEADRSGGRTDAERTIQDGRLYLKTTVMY
B4: Mothers against decapentaplegic homolog 4 (Homo sapiens), Q13485 (parent)
chain: B1 chain
partner: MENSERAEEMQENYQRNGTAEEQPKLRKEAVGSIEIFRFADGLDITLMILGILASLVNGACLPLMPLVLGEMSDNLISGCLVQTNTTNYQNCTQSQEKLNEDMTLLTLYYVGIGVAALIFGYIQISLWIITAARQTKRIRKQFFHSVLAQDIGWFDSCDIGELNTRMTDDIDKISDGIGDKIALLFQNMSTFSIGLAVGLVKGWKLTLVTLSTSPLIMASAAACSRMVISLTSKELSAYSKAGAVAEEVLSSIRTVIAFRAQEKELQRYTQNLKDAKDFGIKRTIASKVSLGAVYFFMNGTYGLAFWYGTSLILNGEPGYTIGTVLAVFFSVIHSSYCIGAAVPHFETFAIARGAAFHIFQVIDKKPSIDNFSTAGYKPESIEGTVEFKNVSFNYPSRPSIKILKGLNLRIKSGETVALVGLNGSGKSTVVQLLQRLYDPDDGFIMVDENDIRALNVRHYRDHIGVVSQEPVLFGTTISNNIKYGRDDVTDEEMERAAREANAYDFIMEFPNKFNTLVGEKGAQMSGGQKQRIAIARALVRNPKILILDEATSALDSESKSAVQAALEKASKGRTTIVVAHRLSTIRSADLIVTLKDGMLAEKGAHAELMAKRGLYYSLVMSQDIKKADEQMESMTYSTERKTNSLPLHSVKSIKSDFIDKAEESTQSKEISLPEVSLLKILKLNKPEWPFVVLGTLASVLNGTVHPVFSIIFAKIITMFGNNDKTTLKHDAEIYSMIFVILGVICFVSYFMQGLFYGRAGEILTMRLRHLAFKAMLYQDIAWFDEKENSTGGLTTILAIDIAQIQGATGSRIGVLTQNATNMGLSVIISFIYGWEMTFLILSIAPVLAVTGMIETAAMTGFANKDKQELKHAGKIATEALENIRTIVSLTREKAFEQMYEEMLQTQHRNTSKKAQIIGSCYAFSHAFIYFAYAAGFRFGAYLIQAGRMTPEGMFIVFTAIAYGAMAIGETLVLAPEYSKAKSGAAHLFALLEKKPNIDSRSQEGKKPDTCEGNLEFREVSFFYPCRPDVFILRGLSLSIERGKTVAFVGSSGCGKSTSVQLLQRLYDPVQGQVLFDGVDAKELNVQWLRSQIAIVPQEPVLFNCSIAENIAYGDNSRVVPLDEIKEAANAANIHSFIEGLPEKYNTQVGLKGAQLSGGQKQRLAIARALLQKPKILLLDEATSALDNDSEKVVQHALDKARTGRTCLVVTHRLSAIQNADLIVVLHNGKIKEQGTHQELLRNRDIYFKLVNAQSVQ

Variants of: B1
Conditions: with epha3_human EPHA3, P29320

Variant | effect of a mutation on the interaction
R361H | with no effect

Variants of: B1
Conditions: with epha3_human EPHA3, P29320
Remark: another data set of the same source

Variant | effect of a mutation on the interaction
R361C | with no effect

Variants of: B1
Conditions: with epha3_human EPHA3, P29320
Remark: another data set of the same source

Variant | effect of a mutation on the interaction
D351H | with no effect

Variants of: B2
Conditions: with cc070_human C3orf70, A6NLC5

Variant | effect of a mutation on the interaction
R361H | with no effect

Variants of: B2
Conditions: with cc070_human C3orf70, A6NLC5
Remark: another data set of the same source

Variant | effect of a mutation on the interaction
R361C | with no effect

Variants of: B2
Conditions: with cc070_human C3orf70, A6NLC5
Remark: another data set of the same source

Variant | effect of a mutation on the interaction
G386D | with no effect

Variants of: B2
Conditions: with cc070_human C3orf70, A6NLC5
Remark: another data set of the same source

Variant | effect of a mutation on the interaction
D351H | with no effect

Variants of: B3
Conditions: with dach1_human DACH1, Q9UI36

Variant | effect of a mutation on the interaction
D351H | with no effect

Variants of: B3
Conditions: with dach1_human DACH1, Q9UI36
Remark: another data set of the same source

Variant | effect of a mutation on the interaction
R361H | with no effect

Variants of: B3
Conditions: with dach1_human DACH1, Q9UI36
Remark: another data set of the same source

Variant | effect of a mutation on the interaction
R361C | with no effect

Variants of: B3
Conditions: with dach1_human DACH1, Q9UI36
Remark: another data set of the same source

Variant | effect of a mutation on the interaction
G386D | with no effect

Variants of: B4
Conditions: with abcb5_human ABCB5, Q2M3G0

Variant | effect of a mutation on the interaction
D351H | with no effect

Variants of: B4
Conditions: with abcb5_human ABCB5, Q2M3G0
Remark: another data set of the same source

Variant | effect of a mutation on the interaction
R361H | with no effect

Variants of: B4
Conditions: with abcb5_human ABCB5, Q2M3G0
Remark: another data set of the same source

Variant | effect of a mutation on the interaction
R361C | with no effect
